Series [1] has as its system PGE2 induced Ca++ influx in HEK293 Gα16 cells stably transfected with human EP4 receptor. Description: EP4 bioassay: PGE2 induced Ca++ flux (FLIPR). It is filed as cell-based.
A short description of series [2]: Accelerated stability screening monitored by SEC. It is filed as physicochemical. The following applies: SEC. The procedure:
Size exclusion chromatography was used to separate proteins based on size. Proteins are carried in an aqueous mobile phase and through a porous stationary phase resin packed in a column. The retention time in the column is a function of the hydrodynamic size of the protein and the size of the pores in the packed resin bed. Smaller molecules can penetrate into smaller pores in the resin and are retained longer than larger molecules. Upon elution from the column the proteins are detected by UV absorbance. The SEC method used a TSK gel guard (TOSOH Biosciences, Montgomeryville, Pa., cat. no. 08543) and a TSK gel G3000SWxL (TOSOH Biosciences, Montgomeryville, Pa., cat. no. 08541). The mobile phase was 100 mM Na2HPO4, 200 mM Na2SO4, pH 7.0. The flow rate was 0.3 mL/minute. Injection volume was 20 μL of 1 mg/mL sample. The column temperature was room temperature. The autosampler temperature was 2-8° C. The total run time was 50 minutes. The detection was based on UV absorbance at 214 nm wavelength, with band width set at 8 nm, using reference wavelength at 360 nm with band width 100 nm.
(§1) The stability of a series of clones (i.e., anti-PGE2 antibodies) of the parent anti-PGE2 antibody was assessed by using intrinsic thermodynamic clone stability determination using DSC (0.79 mg/mL clone concentration, formulated at pH 6 in a 10 mM citrate, 10 mM phosphate buffer) and by accelerated stability screening (0.79 mg/mL clone concentration, formulated at pH 6 in a 10 mM citrate, 10 mM phosphate buffer, for 7 days at 50° C.) where clone stability was monitored with SEC (Table 15).
(In gel filtration, larger molecules generally elute earlier.)

The nature of series [3]: Intrinsic thermodynamic stability by DSC. It is filed as physicochemical. The conditions noted are these: for Tm1 (° C.): 0.79 mg/mL, pH 6, 10 mM citrate, 10 mM phosphate; for Tm2 (° C.) / Tm3 (° C.): same buffer. The procedure:
The thermal stability of the anti-PGE2 antibodies was assessed using a DSC instrument. The DSC instrument used was an automated VP-DSC equipment with Capillary Cell (Microcal, GE Healthcare Ltd./Microcal, Buckinghamshire, UK). Unfolding of molecules was studied applying a 1° C./minute scan rate over a 25° C.-95° C. temperature range for samples at 1 mg/mL. Additional measurement parameters applied were a fitting period of 16 seconds, a pre-scan wait time of 10 minutes, and measurements were performed in none-feedback mode. Per individual measurement, 420 μL of sample/blank were filled into the DSC measurement sample holder, with a plate fill scheme as provided below. The thermograms obtained were fitted to a non two state model to obtain the midpoint temperatures and enthalpies of the different transitions.
as §1

Series [4] is described as follows: Biotin-PGE2 ELISA (PGE2-biotinamide binding to captured IgG). (ELISA stands for enzyme-linked immunosorbent assay.)
The mark [5] stands for this setting: PGE2 25 pm, read-out: IC50 (pM) @ PGE2 25 pm Cellular Potency in EP4 assay.
The mark [6] stands for this setting: start of stability study, 0.79 mg/mL, pH 6.

Where two headings read alike, the source gives them in different places.

B1: 2B5-8.0: recombinant anti-PGE2 antibody from solved 2B5 sequence; VH SEQ ID NO 42, VL SEQ ID NO 43 (antibody, V domains shown)
VH: QVQLQQSGPELVRPGSSVKISCKASGYTFTKYWLGWVKQRPGHGLEWIGDIYPGYDYTHYNEKFKDKATLTVDTSSSTAYMQLSSLTSEDSAIYYCARSDGSSTYWGQGTLVTVSA
VL: DVLMTQTPLSLPVSLGDQASISCTSSQNIVHSNGNTYLEWYLQRPGQSPKLLIYKVSNRFSGVPDRFSGSGSGTVFTLKISRVEAEDLGVYYCFQVSHVPYTFGGGTKLEIKR
One may read the IC50 as the concentration needed to halve the response being measured. Regarding B1, the “inhibition of PGE2 induced calcium influx in EP4 bioassay” value in series [1] is listed as “potently inhibited”. Also, the IC50 in series [1] (read-out: PGE2 Neutralization Potency in Cellular EP4 assay (IC50)) is 44 pM.

B2: Hu2B5.2: humanized 2B5-8.0; VH SEQ ID NO 62, VL SEQ ID NO 63 (antibody, V domains shown)
VH: EVQLVQSGAEVKKPGASVKVSCKASGYTFTKYWLGWVRQAPGQGLEWIGDIYPGYDYTHYNEKFKDRATLTVDTSTSTAYMELSSLRSDDTAVYYCARSDGSSTYWGQGTLVTVSS
VL: DVVMTQTPLSLPVTPGEPASISCTSSQNIVHSNGNTYLEWYLQKPGQSPQLLIYKVSNRFSGVPDRFSGSGSGTDFTLKISRVEAEDVGVYYCFQVSHVPYTFGGGTKVEIKR
For orientation: EC50 means the midpoint of the concentration-response curve. In the case of B2, the IC50 in series [1] (setting [5]) amounted to 55 pM. Besides, in series [2] (7 days storage at 50° C.), the “Aggregate (%)” value turned out to be 2.1753%, the “Fragment (%)” value was found to be 4.6755% and the “Monomer (%)” value came to 93.1491%. For the same molecule, in series [2] (start of stability study), the “Fragment (%)” value worked out at 3.3025% and the “Monomer (%)” value turned out to be 94.8516%. In series [2] (setting [6]), the “Aggregate (%)” value was 1.846%. In addition, in series [3], the “Tm1 (° C.)” value worked out at 72.845 °C, the “Tm2 (° C.)” value is 75.08 °C and the “Tm3 (° C.)” value amounted to 82.67 °C. In series [4], this molecule yielded an EC50 of 55 pM.

B3: Hu2B5.4: humanized 2B5-8.0; VH SEQ ID NO 66, VL SEQ ID NO 67 (antibody, V domains shown)
VH: EVQLVQSGAEVKKPGASVKVSCKASGYTFTKYWLGWVRQAPGQGLEWIGDIYPGYDYTHYNEKFKDRATLTVDTSTSTAYMELSSLRSDDTAVYYCARSDGSSTYWGQGTLVTVSS
VL: DVLMTQTPLSLPVTPGEPASISCTSSQNIVHSNGNTYLEWYLQKPGQSPQLLIYKVSNRFSGVPDRFSGSGSGTDFTLKISRVEAEDVGVYYCFQVSHVPYTFGGGTKVEIKR
B3: in series [1] (setting [5]), the IC50 was determined as 40 pM. For the same molecule, in series [2] (7 days storage at 50° C.), the “Aggregate (%)” value is listed as 2.1689%, the “Fragment (%)” value stood at 6.5423% and the “Monomer (%)” value amounted to 91.2889%. Besides, in series [2] (start of stability study), the “Fragment (%)” value came out at 3.2146% and the “Monomer (%)” value was found to be 94.5513%. The “Aggregate (%)” value in series [2] (setting [6]) worked out at 2.234%. Also, in series [3], the “Tm1 (° C.)” value stood at 71.095 °C, the “Tm2 (° C.)” value amounted to 72.41 °C and the “Tm3 (° C.)” value turned out to be 82.58 °C. This molecule came in with an EC50 in series [4] of 57 pM.

B4: Hu2B5.8: humanized 2B5-8.0; VH SEQ ID NO 74, VL SEQ ID NO 75 (antibody, V domains shown)
VH: EVQLVQSGAEVKKPGASVKVSCKASGYTFTKYWLGWVRQAPGQGLEWMGDIYPGYDYTHYNEKFKDRVTLTTDTSTSTAYMELSSLRSDDTAVYYCARSDGSSTYWGQGTLVTVSS
VL: DVLMTQTPLSLPVTPGEPASISCTSSQNIVHSNGNTYLEWYLQKPGQSPQLLIYKVSNRFSGVPDRFSGSGSGTDFTLKISRVEAEDVGVYYCFQVSHVPYTFGGGTKVEIKR
On to B4, for which the IC50 in series [1] (setting [5]) is 78 pM. Besides, in series [2] (7 days storage at 50° C.), the “Aggregate (%)” value is recorded as 2.5144%, the “Fragment (%)” value is on record as 4.184% and the “Monomer (%)” value amounted to 93.3016%. In addition, in series [2] (start of stability study), the “Fragment (%)” value is given as 3.2904% and the “Monomer (%)” value was 94.5969%. In series [2] (setting [6]), the “Aggregate (%)” value came out at 2.1126%. In series [3], the “Tm1 (° C.)” value was found to be 72.96 °C, the “Tm2 (° C.)” value is 75.33 °C and the “Tm3 (° C.)” value was 82.83 °C. Moreover, the EC50 in series [4] was 87 pM.

B5: Hu2B5.6: humanized 2B5-8.0; VH SEQ ID NO 70, VL SEQ ID NO 71 (antibody, V domains shown)
VH: EVQLVQSGAEVKKPGASVKVSCKASGYTFTKYWLGWVRQAPGQGLEWMGDIYPGYDYTHYNEKFKDRVTLTTDTSTSTAYMELSSLRSDDTAVYYCARSDGSSTYWGQGTLVTVSS
VL: DVVMTQTPLSLPVTPGEPASISCTSSQNIVHSNGNTYLEWYLQKPGQSPQLLIYKVSNRFSGVPDRFSGSGSGTDFTLKISRVEAEDVGVYYCFQVSHVPYTFGGGTKVEIKR
Consider B5, for which, in series [1] (setting [5]), the IC50 was found to be 52 pM. In series [2] (7 days storage at 50° C.), the “Aggregate (%)” value was found to be 2.1577%, the “Fragment (%)” value came out at 4.0253% and the “Monomer (%)” value stood at 93.817%. In series [2] (start of stability study), the “Fragment (%)” value amounted to 2.7275% and the “Monomer (%)” value worked out at 95.446%. In addition, in series [2] (setting [6]), the “Aggregate (%)” value was determined as 1.8265%. Also, in series [3], the “Tm1 (° C.)” value is 73.035 °C, the “Tm2 (° C.)” value amounted to 75.585 °C and the “Tm3 (° C.)” value was determined as 82.95 °C. This molecule also registered an EC50 in series [4] of 89 pM.

B6: Hu2B5.1: humanized 2B5-8.0; VH SEQ ID NO 60, VL SEQ ID NO 61 (antibody, V domains shown)
VH: EVQLVQSGAEVKKPGASVKVSCKASGYTFTKYWLGWVRQAPGQGLEWIGDIYPGYDYTHYNEKFKDRATLTVDTSTSTAYMELRSLRSDDTAVYYCARSDGSSTYWGQGTLVTVSS
VL: DVVMTQTPLSLPVTPGEPASISCTSSQNIVHSNGNTYLEWYLQKPGQSPQLLIYKVSNRFSGVPDRFSGSGSGTDFTLKISRVEAEDVGVYYCFQVSHVPYTFGGGTKVEIKR
Turning to B6, the half-maximal inhibitory concentration (IC50) in series [1] (setting [5]) is 55 pM. Moreover, in series [2] (7 days storage at 50° C.), the “Aggregate (%)” value came out at 2.5611%, the “Fragment (%)” value is given as 6.3675% and the “Monomer (%)” value is 91.0715%. Besides, in series [2] (start of stability study), the “Fragment (%)” value is 4.4044% and the “Monomer (%)” value is listed as 93.7885%. Besides, in series [2] (setting [6]), the “Aggregate (%)” value is given as 1.8071%. In series [3], the “Tm1 (° C.)” value turned out to be 72.835 °C, the “Tm2 (° C.)” value came to 75.02 °C and the “Tm3 (° C.)” value came out at 82.785 °C. Further, the response in series [4] was half-maximal at 63 pM (EC50).

B7: Hu2B5.3: humanized 2B5-8.0; VH SEQ ID NO 64, VL SEQ ID NO 65 (antibody, V domains shown)
VH: EVQLVQSGAEVKKPGASVKVSCKASGYTFTKYWLGWVRQAPGQGLEWIGDIYPGYDYTHYNEKFKDRATLTVDTSTSTAYMELRSLRSDDTAVYYCARSDGSSTYWGQGTLVTVSS
VL: DVLMTQTPLSLPVTPGEPASISCTSSQNIVHSNGNTYLEWYLQKPGQSPQLLIYKVSNRFSGVPDRFSGSGSGTDFTLKISRVEAEDVGVYYCFQVSHVPYTFGGGTKVEIKR
As for B7, in series [1] (setting [5]), the IC50 turned out to be 47 pM. In addition, in series [2] (7 days storage at 50° C.), the “Aggregate (%)” value is 2.6042%, the “Fragment (%)” value was 5.044% and the “Monomer (%)” value worked out at 92.3518%. In addition, in series [2] (start of stability study), the “Fragment (%)” value came to 3.6853% and the “Monomer (%)” value was 94.1987%. In addition, in series [2] (setting [6]), the “Aggregate (%)” value is 2.116%. Also, in series [3], the “Tm1 (° C.)” value is 72.67 °C, the “Tm2 (° C.)” value came out at 72.96 °C and the “Tm3 (° C.)” value was 82.67 °C. It took 59 pM to reach a half-maximal effect in series [4] (EC50).

(Values after patent publication US8624002B2, “Prostaglandin E2 binding proteins and uses thereof” (AbbVie, Inc., priority 2008, dated 2014).)
